Data from paper PMC8733390, “Transcription Factor CitERF16 Is Involved in Citrus Fruit Sucrose Accumulation by Activating CitSWEET11d”.

Biological target: T1, CitERF16 (Citrus, UniProt V4VLW3 1-243)
T1 sequence: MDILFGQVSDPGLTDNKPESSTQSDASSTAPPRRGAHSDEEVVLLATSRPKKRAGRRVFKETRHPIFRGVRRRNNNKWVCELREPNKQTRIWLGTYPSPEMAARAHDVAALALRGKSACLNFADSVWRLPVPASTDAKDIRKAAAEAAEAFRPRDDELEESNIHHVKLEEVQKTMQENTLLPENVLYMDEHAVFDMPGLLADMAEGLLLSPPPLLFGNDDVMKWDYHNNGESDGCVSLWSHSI
Assay: EMSA; unlabelled same-sequence probe reduced binding; LightShift Chemiluminescent EMSA kit (Thermo), per manufacturer; buffer, salt, pH and temperature not stated
Conditions: protein: recombinant; tags: His (pET-32a vector fusion); label: 3'-biotin; blunt

B1: CitSWEET11d promoter probe (dsDNA)
DNA 1: AAACGATGTCGGTACTCGGTCCGCATGCAATCATACAAAACAACAAGAAT
DNA 2: ATTCTTGTTGTTTTGTATGATTGCATGCGGACCGAGTACCGACATCGTTT
B1: binds.
